± gives the uncertainty stated by the source.
Assay: protein stability index of a GFP-peptide fusion (yeast GPS) (PSI 1-4); higher = more stable; sorted into four equal gates, so the index is relative within each strain
In short: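 The protein stability index combines read frequencies across sorting gates, each weighted by its gate number and then summed. To obtain those frequencies, a pooled yeast library of GFP fusions to tiled 17-residue yeast protein peptides, on a plasmid also expressing Cherry, was grown to mid-log phase in leucine-free medium. The cells were sorted into four equal gates by GFP/Cherry ratio before plasmid amplification by PCR and Illumina sequencing.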

Sequence	protein stability index (doa10∆)	protein stability index (pdr5∆)	protein stability index (san1∆)	protein stability index (ubr1∆)
LTLYLFQDYLTQQAVNL [IRR1]	2.15 ± 0.095	1.91 ± 0.067	2.06 ± 0.15	2.17 ± 0.099
VADEEANIELTWAEGTF [RPC37]	2.06 ± 0.067	2.98 ± 0.087	1.81 ± 0.097	2.52 ± 0.071
TAGNWVASQTVKKVIEI [PRE2]	3.18 ± 0.12	3.35 ± 0.084	2.77 ± 0.069	3.23 ± 0.081
ILQIREEIPSKSWDDSV [RRP6]	2.27 ± 0.078	2.76 ± 0.092	2.32 ± 0.084	2.7 ± 0.055
EINLSKIFQTTPEKDLF [YCS4]	2.72 ± 0.11	2.29 ± 0.075	1.5 ± 0.091	2.7 ± 0.055
TVKLTEIVWTSSLIKAG [RPO31]	1.48 ± 0.058	1.69 ± 0.067	1.24 ± 0.14	1.24 ± 0.063
SGTPTLKKNIEPKKDKE [YOR098C/NUP1]	3.39 ± 0.19	3.29 ± 0.11	2.71 ± 0.25	3.05 ± 0.084
MLMSKIGDVDGLIVNPV [POP5]	2.57 ± 0.051	2.58 ± 0.056	2.47 ± 0.041	2.42 ± 0.04
EDVVAISSRTYGQRAVL [RPS0B]	3.28 ± 0.12	3.03 ± 0.06	3.01 ± 0.087	3.1 ± 0.049
TNNMEKIIEDLRQKHEF [SMC2]	3.12 ± 0.055	2.9 ± 0.046	3.13 ± 0.033	3.15 ± 0.033
NNRWAENNYKKRLLGTA [RPS23A]	2.37 ± 0.27	2.78 ± 0.16		
TSPLYMDPGAPLPVETP [SSN2]	3.09 ± 0.12	2.82 ± 0.12	2.75 ± 0.17	2.81 ± 0.11
NDICSVENYETSSAFFY [SIR4]	2.82 ± 0.046	2.88 ± 0.051	2.64 ± 0.05	2.77 ± 0.053
HIEGVVILKKNPDYREE [RPN1]	2.89 ± 0.086	3.07 ± 0.096	3.05 ± 0.079	3.07 ± 0.066
HYMVHEALNLLKFFLVD [LIN1]	2.19 ± 0.053	1.7 ± 0.043	1.79 ± 0.081	2.11 ± 0.058
KVESQETLNDTIERSLI [YCS4]	2.73 ± 0.092	2.99 ± 0.071	2.96 ± 0.072	2.97 ± 0.057
PQNTTATTGGLFGSKPQ [YGR119C/NUP57]	3.33 ± 0.1	3.36 ± 0.1	3.32 ± 0.13	3.53 ± 0.17
YHGNECEINYYEILLKI [SRB8]	1.66 ± 0.055	2.86 ± 0.082	2.24 ± 0.089	2.4 ± 0.082
FGNIMDNLLEMSDHSLD [RRP6]	2.42 ± 0.074	2.58 ± 0.065	1.89 ± 0.1	3.27 ± 0.05
KRSFSSTLKSFFTNPNK [YOR098C/NUP1]	2.39 ± 0.039	2.31 ± 0.04	2.32 ± 0.052	2.28 ± 0.033

Sequence	protein stability index (doa10∆)	protein stability index (pdr5∆)	protein stability index (san1∆)	protein stability index (ubr1∆)
ALDTNGTSATTETLTSK [SIR4]	2.22 ± 0.076	2.19 ± 0.066	2.9 ± 0.065	1.93 ± 0.045
KIKHGSVTEIPLKLSGE [YMR129W/POM152]	2.77 ± 0.07	2.93 ± 0.057	2.58 ± 0.072	2.97 ± 0.086
DRAIRKTCQWYSEHLKP [DIS3]	3.17 ± 0.089	3.1 ± 0.096	3.01 ± 0.07	3.3 ± 0.12
QNNSTGSSSIIYYDSYI [SSN2]	2.63 ± 0.095	2.8 ± 0.1	2.79 ± 0.056	2.81 ± 0.081
GTPLQNNLHELWALLNF [ISW2]	2.76 ± 0.045	2.55 ± 0.051	2.35 ± 0.05	2.76 ± 0.041
TAASVFKELCYENKDNL [PRE3]	2.67 ± 0.051	2.45 ± 0.047	2.38 ± 0.058	2.17 ± 0.054
NTAFGNSNPTSNVFGSN [YJL041W/NSP1]	3.06 ± 0.13	3.6 ± 0.17		3.6 ± 0.16
ENIENEEYVINLLKVSV [ECM29]	1.96 ± 0.12	3.23 ± 0.19		3.1 ± 0.11
MQANTNALRRNLLKDEG [SSN3]	2.94 ± 0.11	3.1 ± 0.25	2.98 ± 0.21	3.2 ± 0.27
ERQQDELENFLDNFETK [YJL041W/NSP1]	3.23 ± 0.16	3.29 ± 0.21	3.48 ± 0.13	3.38 ± 0.075
DFDNIEFKKIPRVKGFK [SEC65]	2.84 ± 0.14	3.11 ± 0.13	2.82 ± 0.078	3.13 ± 0.088
NRTVLLKIFKIFCIDLE [SRB8]	1.94 ± 0.094	2.15 ± 0.089	1.89 ± 0.13	2.3 ± 0.071
ASKGRTKIDMPIKNRKN [BRN1]	3.21 ± 0.11	3.13 ± 0.088	2.91 ± 0.12	3.17 ± 0.1
NRGNKKRHRSSYYDNDL [YML031W/NDC1]	3.02 ± 0.13	3.29 ± 0.095	3.24 ± 0.072	3 ± 0.11
VKTTLVSLTQLRCVKYL [RPC82]	1.4 ± 0.13	1.27 ± 0.079	1.16 ± 0.25	1.37 ± 0.11
SAPIYVDIEYTRGRNII [RET1]	2.42 ± 0.11	2.51 ± 0.12	2.88 ± 0.064	2.86 ± 0.1
CDEHMGLSLAGLAPDAR [PRE5]	2.79 ± 0.18	3.08 ± 0.15	2.56 ± 0.12	2.76 ± 0.093
LKEVLYNDSATSGEAAA [RPN2]	1.45 ± 0.057	1.52 ± 0.063	1.86 ± 0.11	1.28 ± 0.056
LALETVLIKMVKMLRDN [SIR3]	2.26 ± 0.11	2.06 ± 0.074	2.08 ± 0.079	1.77 ± 0.092
